Experimental data: publication PMC9635822

Tests used:
Assay in all cases: optical tweezers, force between two trapped cells
[1] = biological target: AGA2-Im7 displayed on S. cerevisiae cells (ScΨ) (UniProt Q03708)
[2] = biological target: AGA2-CL7 displayed on S. cerevisiae cells (ScΦ) (UniProt Q47112)
[3] = biological target: AGA2-SpyTag displayed on S. cerevisiae cells (ScA)
[4] = biological target: AGA2-SpyCatcher displayed on S. cerevisiae cells (ScB)

UniProt Q03708, sequence (Q03708 whole entry): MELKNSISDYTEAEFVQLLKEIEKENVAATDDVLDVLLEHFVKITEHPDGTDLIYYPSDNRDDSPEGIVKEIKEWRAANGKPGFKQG

Work on “AGA2-CL7 displayed on S. cerevisiae cells (ScΦ) (from UniProt Q47112 371-576) (domain or fragment)” yielded a force needed to pull apart the new cells of the cluster [1] of under 351 pN and a pulling force up to which the two cells remained attached [1] of 335 pN.
“AGA2-SpyCatcher displayed on S. cerevisiae cells (ScB) (designed binder)” gave an interaction force between the two cells [2] of under 10 pN.
“AGA2-SpyTag displayed on S. cerevisiae cells (ScA) (peptide)” gave an interaction force between the two cells [3] of under 10 pN, a force needed to pull apart the new cells of the cluster [4] of under 248 pN and a pulling force up to which the two cells remained attached [4] of 335 pN.
